# Test results as given in the MegaScale stability set (Tsuboyama et al. 2023).
# B1: HHH_rd2_0155 (parent)
# chain: PPDDERKKAEKAARSGNEEKAREILERLGYSEDEARELAKRLR
# Variants of: B1
# Assay: folding stability dG (cDNA display proteolysis); higher = more stable
# Conditions: PBS, room temperature
row,Variant,folding stability dG [kcal/mol]
1,PPDDERKKAEKAARSGNEEKAREILERLGYSEDEARELFKRLR [A39F],1.52
2,PPDDERKKAEKAARSGNEEKAREILERLGYSEDEARELCKRLR [A39C],2.23
3,PPDDERKKAEKAARSGNEEKAREILERLGYSEDEARELIKRLR [A39I],2.75
4,PPDDERKKAEKAARSGNEEKAREILERLGYSEDEARELGKRLR [A39G],0.397
5,PPDDERKKAEKAARSGNEEKAREILERLGYSEDEARELDKRLR [A39D],-0.2
6,PPDDERKKAEKAARSGNEEKAREILERLGYSEDEARELEKRLR [A39E],0.651
7,PPDDERKKAEKAARSGNEEKAREILERLGYSEDEARELHKRLR [A39H],0.706
8,PPDDERKKAEKAARSGNEEKAREILERLGYSEDEATELAKRLR [R36T],1.31
9,PPDDERKKAEKAARSGNEEKAREILERLGYSEDEASELAKRLR [R36S],1.27
10,PPDDERKKAEKAARSGNEEKAREILERLGYSEDEANELAKRLR [R36N],1.14
11,PPDDERKKAEKAARSGNEEKAREILERLGYSEDEAWELAKRLR [R36W],1.68
12,PPDDERKKAEKAARSGNEEKAREILERLGYSEDEAMELAKRLR [R36M],1.57
13,PPDDERKKAEKAARSGNEEKAREILERLGYSEDEAYELAKRLR [R36Y],1.64
14,PPDDERKKAEKAARSGNEEKAREILERLGYSEDEAKELAKRLR [R36K],1.7
15,PPDDERKKAEKAARSGNEEKAREILERLGYSEDEAEELAKRLR [R36E],1.23
16,PPDDERKKAEKAARSGNEEKAREILERLGYSEDEAHELAKRLR [R36H],1.17
17,PPDDERKKAEKAARSGNEEKAREILERLGYSEDEAIELAKRLR [R36I],1.57
18,PPDDERKKAEKAARSGNEEKAREILERLGYSEDEAQELAKRLR [R36Q],1.34
19,PPDDERKKAEKAARSGNEEKAREILERLGYSEDEAVELAKRLR [R36V],1.26
20,PPDDERKKAEKAARSGNEEKAREILERLGYSEDEALELAKRLR [R36L],1.51

row,Variant,folding stability dG [kcal/mol]
1,PPDDERKKAEKAARSGNEEKAREILERLGYSEDEAGELAKRLR [R36G],0.823
2,PPDDERKKAEKAARSGNEEKAREILERLGYSEDEAPELAKRLR [R36P],-0.165
3,PPDDERKKAEKAARSGNEEKAREILERLGYSEDEAFELAKRLR [R36F],1.56
4,PPDDERKKAEKAARSGNEEKAREILERLGYSEDEAREHAKRLR [L38H],0.687
5,PPDDERKKAEKAARSGNEEKAREILERLGYSEDEAREIAKRLR [L38I],2.04
6,PPDDERKKAEKAARSGNEEKAREILERLGYSEDEARESAKRLR [L38S],0.129
7,PPDDERKKAEKAARSGNEEKAREILERLGYSEDEAREKAKRLR [L38K],0.756
8,PPDDERKKAEKAARSGNEEKAREILERLGYSEDEAREFAKRLR [L38F],1.51
9,PPDDERKKAEKAARSGNEEKAREILERLGYSEDEAREYAKRLR [L38Y],1.67
10,PPDDERKKAEKAARSGNEEKAREILERLGYSEDEAREVAKRLR [L38V],1.12
11,PPDDERKKAEKAARSGNEEKAREILERLGYSEDEAREWAKRLR [L38W],1.49
12,PPDDERKKAEKAARSGNEEKAREILERLGYSEDEARETAKRLR [L38T],1.09
13,PPDDERKKAEKAARSGNEEKAREILERLGYSEDEAREMAKRLR [L38M],2.09
14,PPDDERKKAEKAARSGNEEKAREILERLGYSEDEAREAAKRLR [L38A],0.925
15,PPDDERKKAEKAARSGNEEKAREILERLGYSEDEAREEAKRLR [L38E],1.46
16,PPDDERKKAEKAARSGNEEKAREILERLGYSEDEAREDAKRLR [L38D],-0.841
17,PPDDERKKAEKAARSGNEEKAREILERLGYSEDEARERAKRLR [L38R],0.567
18,PPDDERKKAEKAARSGNEEKAREILERLGYSEDEAREQAKRLR [L38Q],0.725
19,PPDDERKKAEKAARSGNEEKAREILERLGYSEDEAREGAKRLR [L38G],-0.173
20,PPDDERKKAEKAARSGNEEKAREILERLGYSEDEARENAKRLR [L38N],-0.062

row,Variant,folding stability dG [kcal/mol]
1,PPDDERKKAEKAARSGNEEKAREILERLGYSEDEARHLAKRLR [E37H],1.85
2,PPDDERKKAEKAARSGNEEKAREILERLGYSEDEARYLAKRLR [E37Y],2.17
3,PPDDERKKAEKAARSGNEEKAREILERLGYSEDEARQLAKRLR [E37Q],2.1
4,PPDDERKKAEKAARSGNEEKAREILERLGYSEDEARALAKRLR [E37A],2.27
5,PPDDERKKAEKAARSGNEEKAREILERLGYSEDEARMLAKRLR [E37M],2.16
6,PPDDERKKAEKAARSGNEEKAREILERLGYSEDEARPLAKRLR [E37P],-0.452
7,PPDDERKKAEKAARSGNEEKAREILERLGYSEDEARLLAKRLR [E37L],2.17
8,PPDDERKKAEKAARSGNEEKAREILERLGYSEDEARNLAKRLR [E37N],1.82
9,PPDDERKKAEKAARSGNEEKAREILERLGYSEDEARSLAKRLR [E37S],2.05
10,PPDDERKKAEKAARSGNEEKAREILERLGYSEDEARWLAKRLR [E37W],2.41
11,PPDDERKKAEKAARSGNEEKAREILERLGYSEDEARFLAKRLR [E37F],1.98
12,PPDDERKKAEKAARSGNEEKAREILERLGYSEDEARVLAKRLR [E37V],2.03
13,PPDDERKKAEKAARSGNEEKAREILERLGYSEDEARRLAKRLR [E37R],2.34
14,PPDDERKKAEKAARSGNEEKAREILERLGYSEDEARILAKRLR [E37I],2.21
15,PPDDERKKAEKAARSGNEEKAREILERLGYSEDEARTLAKRLR [E37T],1.95
16,PPDDERKKAEKAARSGNEEKAREILERLGYSEDEARGLAKRLR [E37G],1.38
17,PPDDERKKAEKAARSGNEEKAREILERLGYSEDEARKLAKRLR [E37K],2.1
18,PPDDERKKAEKAARSGNEEKAREILERLGYSEDEARCLAKRLR [E37C],2.36
19,PPDDERKKAEKAARSGNEEKAREILERLGYSEDEARDLAKRLR [E37D],1.73
